Experimental data taken from the nanobody polyreactivity screen of Harvey et al. (2022).

Assay: yeast display, Sf9 membrane polyspecificity reagent, FACS + sequencing; frameworks hold sequencing errors
Procedure, shortened: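 Sorting gates, low and high (top ~1%), were placed on anti-HA fluorescence to track expression and on streptavidin fluorescence to track reagent binding. A clone's polyreactivity label is taken from the gate it came out of. The reagent was 10% biotinylated, detergent-solubilized Sf9 membrane, applied for 1 hour at 4 °C to galactose-induced yeast display cells.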

Sequence	polyreactivity (PSR sort gate)
QVQLVESGGGLVQAGGSLRLSCAASGRIFYWYAMGWYRQAPGKERELVAAISRSGSRTYYPDSVKGRFTISRDNAKNTVYLQMNSLKPEDTAVYYCAAVSGTGTAMDYWGQGTQVTVSS	high polyreactivity
QVQLVESGGGLVQAGGSLRLSCAASGIIFYSNTMGWYRQAPGKERELVAGISRSGSSTYYADSVKGRFTISRDNAKNTVYLQMNSLKPEDTAVYYCAAYRYGVTNAYGYWGQGTQVTVSS	high polyreactivity
QVQLVESGGGIVQAGGSLRLSCAASGSTFYKYAMGWYRQAPGKERELVASISRSGGSTSYADSVKGRFTISRDNAKNTVYLQMNSLKPEDTAVYYCAARSLSWTPYYYWGQGTQVTVSS	high polyreactivity
QVQLVESGGGLVQAGGSLRLSCAASGGTIVGYAMGWYRQAPGKERELVAAIDSSGGSTYYADSVKGRFTISRDNAKNTVYLQMNSLKPEDTAVYYCAALSTNYYISPYYYYNSKGYDYWGQGTQVTVSS	high polyreactivity
QVQLVESGRGLVQAGGSLRLSCAASGFTFAFYAMGWYRQAPGKERELVAAISRRGGSTTYADSVKGRFTISRDNAKNTVYLQMNSLIPEDSAVYYCNAVSTRNPGPDYYYWGQGTQVTVSS	high polyreactivity
QVQLVESGGGLVQAGGSLRLSCAASGITFAFYAMGWYRQAPGKERELVAAISWSGTRTYYADSVKGRFTISRDNAKNTVYLQMNSLKPEDTAVYYCAADFQAGDKLYDYWGQGTQVTVSS	low polyreactivity
QVQLVESGGGLVQAGGSLRLSCAASGLIFAYAMGWYRQAPGTERELVAAISGRDGSTYYADSVKGRFTISRDNAKNTVYLQMNSLKPEDTAVYYCAKRISYLPVEMDYWGQGTQVTVSS	low polyreactivity
QVQLVESGGGLVQAGGSLRLSCAASVSTYIYYAMGWYRQAPGKERELVAAISQSGGSTYYADSVKGRFTISRDNAKNTVYLQMNSLKPEDTAVYYCAARLRHLGLGRYGFDYWGQGTQVTVSS	high polyreactivity
QVQLVESGGGLVQAGGSLRLSCAASGRTFYIYAMGWYRQAPGKERELVAAISWGSGSTYYADSVKGRFTISRDNAKNTVYLQMNSLKPEDTAVYYCAAEYAYPSEWTYDYWRQGTQVTVSS	low polyreactivity
QVQLVESGGGLVQAGGSLRLSCAASGFIFGVYAMRWYRQAPGKERELVAAISYRTGTTYYADSVKGRFTISRDNAKNTVYLQMNSLKTEDTAVYYCNAAVRGVGELDYWGQGTQVTVSS	high polyreactivity
QVQLVESGGGLVQAAGSLRLSCAASGSIFFYNAMGWYRQAPGIERELVAAITGGGGRTYYADSVKGRFTISRDNAKNTVYLQMNSLKPEDTAVYYCNKDWAQPYDYWGQGTQVTVSS	high polyreactivity
QVQLVESGGGLVQAGGSLRLSCAASGSTFSYNAMGWYRQAPGKERELVAAITSSGSSTYYADSVKGRFTISRYNAKNTVYLQMNSLKPEDTAVYYCAATLYNTEDDYWGQGTQVTVSS	low polyreactivity
QVQLLDSGGGLVQAGGSLRLSCAASGSIFYLNAMGWYRQAPVKEREFVAAITLRGGSSYYADSVKGRFTISRDYANNTFYLQMKSLKPEDTAFYYCNAGVALTYVHDGDYWGQGTQVTVSS	low polyreactivity
QVQLVESGGGLVQAGGSLRLSCAASGRTFWEHAMGWYRQAPGKERELVAAISGDSGSTYYADSVKGRFTISRDNANNSVYLQMNSLKPEDTAVYYCAGDSDRDDSYPYYYWGQGTQVTVSS	low polyreactivity
QVQLVESGGGLVQAGGSLRLSCAASGIIFFFYAMGWYRQEPGKERELVAAISDEGVSTDYADSVKGRFTISRDNAKNTVYLQMNSLKPEDTAVYYCAAKTERVYPWFSFGYWGQGTQVTVSS	low polyreactivity
QVQLVESGGGLVQAGGSLRLSCAASGSTFLYYAMGWYRQAPGKESELVARITTRVGRTYYADSVKGRFTISRDNAKNTVYLQMNSLKPEDTAVYYCNAPYLKSRFRAYYHWGQGTQVTVAS	high polyreactivity
QDQLVESGGGLVQAGGSLRLSCAASGYIFRIYAMGWYRQAPGKERELVATITNGGSTHYADSVKGRFTISRDNAKNTVYLQMNSLKPEDTAVYYCAADLLYSEYDYWGQGTQVTVSS	high polyreactivity
QVQLGESGGGLVQAGGSVRLSCAASGRTFDFYALGWYRQAPGKERELVAAISSRGGSTYYADSVKGRFTISRDNAKNTVYLQMNSLKPEDTAVYYGAKDLGYRGRYNYWGQGTQVTVSS	low polyreactivity
QVQLVESGGGLVQAGGSLRLICAASGSIFNAYAMGWYRQAPGKEREFVAAITGGGTYYADSVKGRFTISRDNAKNTVYLQMNSLKPEDTAVYYCNADYGTSRHTFWDYESWGQGTQVTVSS	low polyreactivity
QVQLVESGGGLVQAGGSLRLSCAASGSILVSNDMGWYRQAPGKERELVAAISWSGGSTYYADSVKGRFTISRDNAKNTVYLQMNSLKPEDTAVYYCATGVALRYGYWGQGTQVTVSS	low polyreactivity
QVQLVESGGGLVQAGGSLRLSCAASGSIFYVYAMGWYRQAPGKERELVASIRWIGDRTYYADSVKGRFTISRDNAKNTVYLQMNSLKPEDTAVYYCAADPRYYGYYYLTPRYYYWGQGTQVTVSS	high polyreactivity
QVQLVESGGGLVHAGGSLRLSCAASGGTFGYYAMGWYRQAPGQERDLVAAISGSGGSTYYADSVKGRYTISRDHAKNTFYFQMNSLKPEDTAVYYCNAYIFGEVPNNYYWGQGTQVTVSS	high polyreactivity

Sequence	polyreactivity (PSR sort gate)
QVQLVESGGGLVQAGGSLRFSCAASGFIFRRYTMGWYRQAPGKERELVAAISITGSRTYYADSVKGRFTISRDNAKNTVYLQMNSLKPEDTAVYYCAARVWYAPKTLFGYDFDYWGQGTQVTVSS	high polyreactivity
QVQLVESGGGLVQAGGSLRLSCAASGSTFYRNVMGWYRQAPGKERELVAAISSGGSTYYADSVIGRFTISRDNAKNTVYLQLNSLKPEDTAVYYCARRLTREYDYWGQGTQVTVSS	low polyreactivity
QVQLVESGGGLVQAGGSLRISCAASGLIFAIYAMGWYRQAPGKERELVAAIRWSGASTYADSVKGRFTISRDNAKNTVYLQMNSLKAEDTAVYYCAADDLLDYDNWGQGTQVTVSS	low polyreactivity
KVQLVESGGGLVQAGGSLRLSCASSGSIFSGYAMGWYRQAPGKERELVAAISRGGSTNYADSVKGRFTISRDNAKNTVYLQMNSLKPEDTAVYYCARDTEGKYVGYGRFGYWGQGTQVTVSS	low polyreactivity
QVQLVESGGGLVQAGGSLRLSRAASGSIFDDYAMGWYRQAPGKERELVAAITSGGSTYYADSVKGRFTMSRDNAKNTVYLQRNSLKPEDTAVYYRATRYHWSSSFAPVGAYGYWGQGTQVTVSP	low polyreactivity
QVQLVESGGGLVQAGGSLRLSCAASGITFGDYTMGWYRQAPGKERELVAGINWSGDGTYYADSVKGRFTISRDNAKNTVYLQMNSLKPEDTAVYYCAAETFYDYGGYDYWGQGTQVTVSS	low polyreactivity
QVQLVESGGGLVQAGRTLRLSCAASGFTFYYNAMGWYRQAPGKERELVATITGSTYYADSVKGLFTISRDNATYSVYLQMNSLKPEDTAVYYCTADASLVLAEYDYWGQGTQVTVSS	low polyreactivity
QVQLVESGGGLVQAGGSLRLSCAASGRTCGYNAMGWYRQAPGKERELVAAISWSGTRSYYADSVKGRFTSSRDNAKNTVYLQMNSLKPEDTAVYYCAKRTLYGRTWSTSDYWGQGTQVTVSS	high polyreactivity
QFQLVESGGGLVQAGGSLRLSCAASGSTFYTTDMGWYRQAPGKERELVASITSAGNTNYADSVKGRFTISRDNAKNSVYLQMNSLKPEDTAVYYYYYYQYDYWGQGTQVTVSS	low polyreactivity
QVQLVESGGGLVQAGGSLRLSCAASGRTLSYYARGWYRQAPGKERELVASIRRRTGSTYYAESVKGRFTISRDNAKNSVYLQMNSLTPEDTAVYYCAADLIYYGEYDYWGQGTQVTVSS	high polyreactivity
QVQLEESGGGLVQAGGSLRLSCAASGSIFVPYAMGWYRQAPGKERELVASISWRGGSTYYADSVKGRFTISRDNAKNTVYLQMNSLKPEDTAVYYCAAQKRGSPGYRRDYWGQGTQVTVSS	high polyreactivity
QVQLVESGGGLVQAGGSLRLSCAASGSTFQAYAMGWYRQAPGKERELVAAISVSDGITYYADSVKGRFTISRDNAKNTVYLQMNSLKPEDTAVNYCAAEISLSRSDRIESYDYWGQGTQVTVSS	low polyreactivity
QVQLVESGGGLVQAGGSLRLSCAASGSTFAPNAMGWYRQAPGKERELVAVIDSGDGTTYYADSVKGRFTISRDNAKNTVYLQMNSLKPEDTAVYYCAVDESTSYYDDHEDYWGQGTQVTVSS	low polyreactivity
QVQLVESGGGLVQAGGSLRLSCAASGFIIKYYAMGWYRQAPGKERELVAAISSGGRTYYADSVKGRFTISRDNAKNTVYLQMNSLKPEDTAVYYCAKTFRKSYDWGQGTQVTVSS	high polyreactivity
QVQLVESGGGLVQAGGSLRLSCAASGFIFNYNTMGWYRQAPGKERELVAAITWSGVSTYADSVKGRFTISRDNAKNTVYLQMNSLKPEDTAVYYCAASPYQRESVYDFGYDYWGQGTQVTVSS	low polyreactivity
QVQLVESGGGLVQAGGSLRLSCAASGITFHSYAMGWYRQAPGKERELVAGISSGGSTNYADSVKGRFTISRDNAKNTVYLQMNSLKPEDTAVYYCAVLNHRVDSVLTRYYYWGQGTQVTVSS	low polyreactivity
QVQLVESGGGLVQAGGSLRLSCAASGSTFVWYAMGWYRQEPGKERELVAAINFGGTTYYADSVNGRFTISRDNAKNTVYLQMNSLKTEDTAVYYCATEYDYGSWYPDGWGIFDYWGQGTQVTVSS	low polyreactivity
QVQLVESGGGLVQAGGSLRLSCAASRRIFYGYAMGWYRQAPGKERELVAAISLRTGSTFYADSVKGRFTISRDNAMNTVYLQMNSLKPEDTAVYYCAKEESYRPYIYVMDYWGQGTQVTVSS	low polyreactivity
QVQLVESGGGLVQAGGSLRFSCAASGIIFQRNDMGLYRQAPGKERELVANIRDGGITYADSVKGRFTLSRDNAKNTFYLQMNSLKPEDTAVYYCAADYHTPSSFAPIELYDYWGQGTQVTVSS	low polyreactivity
QVQLVESGGGLVQAGGSLRLSCAASGSTFQPYAMGWYRQAPGKEREFVAAIRWGTGSTYYADSVKGRFTISRDNAKNTVYLQMNILKPEDTAVYYCAKRRVSASREYYWGQGTQVTVSS	high polyreactivity
QVQLEESVGGLVQAGGSLRLSCAASGSILLWNAMGSYREAPGKERELVAAISSSGTSTYYADSVKGLFTISRDNAKNTVYLQMNSEKPEDNAVYYCAADQSEFYAIYYYWGQGTQVTVSS	low polyreactivity
